Read-outs that look alike come from different tables or passages of the source.

Common to all, as to assay: SPR
Background: SPR reads the build-up and loss of mass on a sensor chip optically.

Assay [1] has as its target T1, VACV , residues A3-G181 (vaccinia virus (VACV), UniProt P07612 3-181).
Assay [2] deals with T2, MPXV [change], residues A3-G181, C-terminal 6×His tag (pCAGGS, Expi293F) (mpox virus (MPXV)).
Assay [3] addresses T1, VACV , residues A3-G181. This is another data set of the same source.
Assay [4] addresses T1, VACV , residues A3-G181. This is another data set of the same source.
Assay [5] deals with T2, MPXV [change], residues A3-G181, …. The source holds these as a separate data set.

B1: hmMM1-40, humanized mMM1-40 monoclonal antibody (antibody, V domains shown)
VH: QVQLVQSGAEVKKPGASVKVSCKASGYIFTRYWMHWVRQAPGQGLEWMGYINPSTGYTEYNQKFKDRVTMTRDTSTSTVYMELSSLRSEDTAVYYCARSDYTNYVFEYWGQGTLVTVSS
VL: DVVMTQSPLSLPVTLGQPASISCRSSQSLVHSNGNTYLHWFQQRPGQSPRRLIYKVSNRFSGVPDRFSGSGSGTDFTLKISRVEAEDVGVYYCSQSTHVPYTFGGGTKVEIK
For B1, the Kd with VACV , residues A3-G181 [1] was found to be 0.47 nM; in assay [2], 0.48 nM. Also, the off-rate (koff) with VACV , residues A3-G181 [3] came out at 6.19e-05 s⁻¹.

B2: mMM1-16 monoclonal antibody (mouse variable regions, human IgG1/Igκ constant regions) (antibody, V domains shown)
VH: QIQLQQSGAELARPGASVKLSCKASGYTFITYWIQWVKQRPGQGLEWIGAIYPGDGDTRYTQKFKAKATLTADKSSSTAYMQLSTLTSEDSAVYFCAKGDTYPAAMDYWGQGTSVTVSS
VL: DIQMTQSPASLSASVGETVTITCRTSGNIHNYLAWYQQKQGRSPQLLVNNAKTLADGVPSRFSGSGSGTQYSLKINSLQPEDIGSYYCQHFWITPYTFGGGTKLEIK
In the case of B2, the Kd with VACV , residues A3-G181 [4] was determined as 0.72 nM; in assay [5] it was 6.3 nM.

Broadly, the Kd is the equilibrium constant for the complex coming apart. By koff is commonly meant the first-order rate constant of dissociation. Low values mean a long-lived complex, high ones a short-lived complex.

The values are drawn from publication PMC12514038 (2025).
